Assay results published in article PMC2794166.

Biological target: T1, mPOT1a_N (mouse, UniProt Q91WC1 1-300)
T1 sequence: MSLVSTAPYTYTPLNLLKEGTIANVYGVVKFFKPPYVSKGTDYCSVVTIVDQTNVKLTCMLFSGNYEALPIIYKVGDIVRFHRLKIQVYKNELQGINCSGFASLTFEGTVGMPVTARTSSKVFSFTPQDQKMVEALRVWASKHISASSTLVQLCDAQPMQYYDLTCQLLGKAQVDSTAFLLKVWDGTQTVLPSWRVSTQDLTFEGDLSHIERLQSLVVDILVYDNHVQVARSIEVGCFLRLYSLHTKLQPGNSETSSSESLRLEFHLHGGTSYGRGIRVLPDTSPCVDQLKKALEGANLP
Test: EMSA

B1: (TTAGGG)2 (ssDNA)
DNA: TTAGGGTTAGGG
binding result: no binding
